Measured values as given in the supplement of paper PMC10567573.

B1: TRIM39 (parent)
chain: YPCVLATEGFTSGRHYWEVEVGDK

Variants of: B1
Assay: protein stability index of a GFP-peptide fusion (GPS, HEK-293T) (PSI 1-6); higher = more stable
Conditions: c terminus: a fixed tail appended
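Also: lentivirally expressed fusions sorted by FACS into six bins by GFP to DsRed ratio, PSI derived from sequencing read proportions per bin multiplied by bin number.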

Row | Variant | protein stability index
1 | YPCVLATEGFTSGRHYREVEVGDK | 2.88
2 | YPCVLATEGFTSGRHYHEVEVGDK | 3.07
3 | YPCVLATEGFTSGRHYNEVEVGDK | 3.77
4 | YPCVLATEGFTSGRHYLEVEVGDK | 2.97
5 | YPCVLATEGFTSGRHYWYVEVGDK | 2.71
6 | YPCVLATEGFTSGRHYWPVEVGDK | 1.92
7 | YPCVLATEGFTSGRHYWKVEVGDK | 1.73
8 | YPCVLATEGFTSGRHYWIVEVGDK | 1.89
9 | YPCVLATEGFTSGRHYWHVEVGDK | 1.43
10 | YPCVLATEGFTSGRHYWWVEVGDK | 2.2
11 | YPCVLATEGFTSGRHYWMVEVGDK | 1.51
12 | YPCVLATEGFTSGRHYWSVEVGDK | 2.72
13 | YPCVLATEGFTSGRHYWGVEVGDK | 2.82
14 | YPCVLATEGFTSGRHYWAVEVGDK | 3.12
15 | YPCVLATEGFTSGRHYWFVEVGDK | 1.81
16 | YPCVLATEGFTSGRHYWQVEVGDK | 1.05
17 | YPCVLATEGFTSGRHYWDVEVGDK | 1.45
18 | YPCVLATEGFTSGRHYWNVEVGDK | 2.38
19 | YPCVLATEGFTSGSHYWEVEVGDK | 2.07
20 | YPCVLATEGFTSGYHYWEVEVGDK | 1.95
21 | YPCVLATEGFTSGEHYWEVEVGDK | 3.04
22 | YPCVLATEGFTSGNHYWEVEVGDK | 1.91
23 | YPCVLATEGFTSGWHYWEVEVGDK | 1.66
24 | YPCVLATEGFTSGQHYWEVEVGDK | 2.36

Row | Variant | protein stability index
25 | YPCVLATEGFTSGIHYWEVEVGDK | 2.17
26 | YPCVLATEGFTSGGHYWEVEVGDK | 2.48
27 | YPCVLATEGFTSGTHYWEVEVGDK | 2.27
28 | YPCVLATEGFTSGAHYWEVEVGDK | 2.37
29 | YPCVLATEGFTSGKHYWEVEVGDK | 1.69
30 | YPCVLATEGFTSGHHYWEVEVGDK | 1.71
31 | YPCVLATEGFTSGFHYWEVEVGDK | 1.81
32 | YPCVLATEGFTSGMHYWEVEVGDK | 1.66
33 | YPCVLATEGFTSGLHYWEVEVGDK | 2.45
34 | YPCVLATEGFTSGVHYWEVEVGDK | 2.06
35 | YPCVLATEGFTSGPHYWEVEVGDK | 2.32
36 | YPCVLATEGFTSGDHYWEVEVGDK | 2.66
37 | YPCVLATEGFTSGCHYWEVEVGDK | 1.79
38 | YPCVLATEGFTSGRGYWEVEVGDK | 1.98
39 | YPCVLATEGFTSGRLYWEVEVGDK | 1.56
40 | YPCVLATEGFTSGRSYWEVEVGDK | 2.16
41 | YPCVLATEGFTSGRIYWEVEVGDK | 1.22
42 | YPCVLATEGFTSGRFYWEVEVGDK | 1.9
43 | YPCVLATEGFTSGRTYWEVEVGDK | 2.17
44 | YPCVLATEGFTSGRYYWEVEVGDK | 2.58
45 | YPCVLATEGFTSGRQYWEVEVGDK | 2.6
46 | YPCVLATEGFTSGRDYWEVEVGDK | 2.93
47 | YPCVLATEGFTSGRVYWEVEVGDK | 2.27
48 | YPCVLATEGFTSGRKYWEVEVGDK | 2.06

Row | Variant | protein stability index
49 | YPCVLATEGFTSGRNYWEVEVGDK | 2.76
50 | YPCVLATEGFTSGRMYWEVEVGDK | 1.32
51 | YPCVLATEGFTSGRPYWEVEVGDK | 2.16
52 | YPCVLATEGFTSGRRYWEVEVGDK | 1.97
53 | YPCVLATEGFTSGRCYWEVEVGDK | 2.2
54 | YPCVLATEGFTSGRWYWEVEVGDK | 2.1
55 | YPCVLATEGFTSGRAYWEVEVGDK | 2.61
56 | YPCVLATEGFTSGREYWEVEVGDK | 3.05
57 | YPCVLATEGFTSGRHYWEVMVGDK | 1.59
58 | YPCVLATEGFTSGRHYWEVQVGDK | 1.51
59 | YPCVLATEGFTSGRHYWEVLVGDK | 2.32
60 | YPCVLATEGFTSGRHYWEVDVGDK | 1.98
61 | YPCVLATEGFTSGRHYWEVFVGDK | 1.93
62 | YPCVLATEGFTSGRHYWEVAVGDK | 2.14
63 | YPCVLATEGFTSGRHYWEVIVGDK | 1.96
64 | YPCVLATEGFTSGRHYWEVGVGDK | 3.06
65 | YPCVLATEGFTSGRHYWEVWVGDK | 2.16
66 | YPCVLATEGFTSGRHYWEVPVGDK | 1.57
67 | YPCVLATEGFTSGRHYWEVVVGDK | 2.31
68 | YPCVLATEGFTSGRHYWEVKVGDK | 2.4
69 | YPCVLATEGFTSGRHYWEVNVGDK | 2.06
70 | YPCVLATEGFTSGRHYWEVCVGDK | 2.73
71 | YPCVLATEGFTSGRHYWEVYVGDK | 1.96
72 | YPCVLATEGFTSGRHYWEVTVGDK | 2

Row | Variant | protein stability index
73 | YPCVLATEGFTSGRHYWEVRVGDK | 3.35
74 | YPCVLATEGFTSGRHYWEVHVGDK | 1.58
75 | YPCVLATEGFTSIRHYWEVEVGDK | 1.73
76 | YPCVLATEGFTSFRHYWEVEVGDK | 1.56
77 | YPCVLATEGFTSCRHYWEVEVGDK | 1.91
78 | YPCVLATEGFTSERHYWEVEVGDK | 1.87
79 | YPCVLATEGFTSNRHYWEVEVGDK | 1.57
80 | YPCVLATEGFTSMRHYWEVEVGDK | 1.59
81 | YPCVLATEGFTSVRHYWEVEVGDK | 2.15
82 | YPCVLATEGFTSHRHYWEVEVGDK | 1.46
83 | YPCVLATEGFTSQRHYWEVEVGDK | 1.71
84 | YPCVLATEGFTSPRHYWEVEVGDK | 1.74
85 | YPCVLATEGFTSARHYWEVEVGDK | 1.48
86 | YPCVLATEGFTSYRHYWEVEVGDK | 1.2
87 | YPCVLATEGFTSSRHYWEVEVGDK | 2.03
88 | YPCVLATEGFTSLRHYWEVEVGDK | 1.95
89 | YPCVLATEGFTSRRHYWEVEVGDK | 2.09
90 | YPCVLATEGFTSDRHYWEVEVGDK | 2.24
91 | YPCVLATEGFTSKRHYWEVEVGDK | 2.39
92 | YPCVLATEGFTSTRHYWEVEVGDK | 1.72
93 | YPCVLATEGFTSWRHYWEVEVGDK | 1.47
94 | YPCVLATEGYTSGRHYWEVEVGDK | 2.26
